# In patent publication US5679525:
# Biological target: CBF1 (RBPJK), purified from HeLa (Homo sapiens) (UniProt Q06330)
# Assay: competition
# Chain of CBF1 (RBPJK), purified from HeLa (Homo sapiens) (Q06330 other isoform, or with tags, fused parts or gaps): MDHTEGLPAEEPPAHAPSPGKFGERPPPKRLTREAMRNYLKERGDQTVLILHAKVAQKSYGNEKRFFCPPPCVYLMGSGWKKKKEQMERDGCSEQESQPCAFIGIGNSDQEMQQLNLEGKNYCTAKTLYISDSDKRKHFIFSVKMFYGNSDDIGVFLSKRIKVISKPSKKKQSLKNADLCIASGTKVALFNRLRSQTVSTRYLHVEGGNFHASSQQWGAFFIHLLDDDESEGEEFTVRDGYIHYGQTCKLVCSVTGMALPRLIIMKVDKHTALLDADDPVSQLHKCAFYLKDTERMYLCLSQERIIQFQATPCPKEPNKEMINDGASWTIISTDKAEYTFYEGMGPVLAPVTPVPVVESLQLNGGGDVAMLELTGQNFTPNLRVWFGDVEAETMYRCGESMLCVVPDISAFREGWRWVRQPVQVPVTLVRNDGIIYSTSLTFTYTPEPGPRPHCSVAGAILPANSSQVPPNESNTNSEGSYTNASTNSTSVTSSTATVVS
sequence,measurement,setting,value
AAGCATCGTGGATATTCCCGGCACAGCT (double strand) [ELAMp kB-1],binding signal (% reduction at 10 pmol competitor),"0% at 0.1, 8% at 1.0 pmol",44
CAAGAGACAGAGTTTCTAAGCTTATTGTAATTTTAAGCATCG (double strand) [Unrelated],binding signal (% reduction at 10 pmol competitor),0% at all amounts,0
GATGCCATTGGGGATTTCCTCTTTACTG (double strand) [ELAM kB-3],binding signal (% reduction at 10 pmol competitor),0% at 0.1 and 1.0 pmol,14
GGAAACACGCCGTGGCTAAAAATTTGGG (double strand) [Cp-Mut],binding signal (% reduction at 10 pmol competitor),"0% at 0.1 and 1.0 pmol, approx 250-fold weaker than Cp",19
GGAAACACGCCGTGGGAAAAAATTTGGC (double strand) [Cp (EBV C-promoter EBNA2 responsive element)],binding signal (% reduction at 10 pmol competitor),"EMSA competition against Cp probe, 51% at 0.1, 90% at 1.0 pmol",98
GGACTACCACTGTGCCTTCCTCTGGAGG (double strand) [Heptamer-BamHI],binding signal (% reduction at 10 pmol competitor),"0% at 0.1 and 1.0 pmol, additional 40-fold reduction versus Heptamer+BamHI",8
GGACTACCACTGTGGGATCCTCTGGAGG (double strand) [Heptamer+BamHI],binding signal (% reduction at 10 pmol competitor),"0% at 0.1, 31% at 1.0 pmol, approx 16-fold weaker than Cp",75
TATATGCCCGGGAAAGTTTTTGTATTCC (double strand) [ELAMp kB-2],binding signal (% reduction at 10 pmol competitor),"2% at 0.1, 27% at 1.0 pmol",51
TCCTTCAGCCCTGTGGGAACTTGCTGCT (double strand) [CD23p],binding signal (% reduction at 10 pmol competitor),"22% at 0.1, 70% at 1.0 pmol, approx 2.5-fold weaker than Cp",91
